How the values were obtained:
[1] = target: flag-tagged KV7.2 channel subunit (UniProt O43526)
[2] = target: flag-tagged KV7.2 channel subunit (UniProt O43526); remark: listed apart in the source

Chain of UniProt O43526 (O43526 whole entry): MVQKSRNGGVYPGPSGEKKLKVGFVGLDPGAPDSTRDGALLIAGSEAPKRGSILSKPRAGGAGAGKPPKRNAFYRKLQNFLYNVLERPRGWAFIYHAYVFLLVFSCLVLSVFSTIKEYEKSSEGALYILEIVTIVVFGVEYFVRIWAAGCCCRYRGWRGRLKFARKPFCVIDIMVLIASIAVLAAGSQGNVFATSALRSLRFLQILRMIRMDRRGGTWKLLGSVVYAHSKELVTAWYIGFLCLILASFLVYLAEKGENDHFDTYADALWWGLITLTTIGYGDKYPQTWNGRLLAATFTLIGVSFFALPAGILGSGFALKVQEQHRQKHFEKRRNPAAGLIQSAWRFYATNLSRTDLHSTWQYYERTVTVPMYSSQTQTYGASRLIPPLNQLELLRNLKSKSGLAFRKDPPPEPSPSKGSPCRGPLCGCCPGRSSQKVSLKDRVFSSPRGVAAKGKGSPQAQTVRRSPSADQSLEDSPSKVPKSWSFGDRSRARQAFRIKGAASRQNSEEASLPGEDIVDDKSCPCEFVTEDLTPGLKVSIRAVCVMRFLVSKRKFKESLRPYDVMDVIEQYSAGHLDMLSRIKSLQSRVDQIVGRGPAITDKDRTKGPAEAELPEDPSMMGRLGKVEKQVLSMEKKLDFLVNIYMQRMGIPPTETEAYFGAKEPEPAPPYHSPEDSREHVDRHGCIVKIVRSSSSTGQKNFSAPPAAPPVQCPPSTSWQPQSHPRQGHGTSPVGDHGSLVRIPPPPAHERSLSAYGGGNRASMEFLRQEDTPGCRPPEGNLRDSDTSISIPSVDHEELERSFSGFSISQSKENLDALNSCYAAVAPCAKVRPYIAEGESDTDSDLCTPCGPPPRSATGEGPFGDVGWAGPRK

pore-mutated KV8.1(AAA) (from UniProt Q6PIU1 1-500) (natural protein)
steady-state current density at +20 mV (patch clamp) in CHO cells co-transfected with KV8.1(AAA) and wild-type KV7.2 (4:1), relative to both wild-type constructs [1]: 50% | current amplitude (patch clamp) in CHO cells co-transfected with KV8.1(AAA) and wild-type KV7.2 at a 1:1 ratio, relative to co-transfection of wild-type channels [2]: 49.4%

B1: KV8.1 G399R (natural protein)
chain: MPSSGRALLDSPLDSGSLTSLDSSVFCSEGEGEPLALGDCFTVNVGGSRFVLSQQALSCFPHTRLGKLAVVVASYRRPGALAAVPSPLELCDDANPVDNEYFFDRSSQAFRYVLHYYRTGRLHVMEQLCALSFLQEIQYWGIDELSIDSCCRDRYFRRKELSETLDFKKDTEDQESQHESEQDFSQGPCPTVRQKLWNILEKPGSSTAARIFGVISIIFVVVSIINMALMSAELSWLDLQLLEILEYVCISWFTGEFVLRFLCVRDRCRFLRKVPNIIDLLAILPFYITLLVESLSGSQTTQELENVGRIVQVLRLLRALRMLKLGRHSTGLRSLGMTITQCYEEVGLLLLFLSVGISIFSTVEYFAEQSIPDTTFTSVPCAWWWATTSMTTVGYRDIRPDTTTGKIVAFMCILSGILVLALPIAIINDRFSACYFTLKLKEAAVRQREALKKLTKNIATDSYISVNLRDVYARSIMEMLRLKGRERASTRSSGGDDFWF
current amplitude (patch clamp) in CHO cells co-transfected with KV8.1 G399R and wild-type KV7.2 (4:1), relative to both wild-type constructs [2]: 54%

B2: KV8.1 W388G (natural protein)
chain: MPSSGRALLDSPLDSGSLTSLDSSVFCSEGEGEPLALGDCFTVNVGGSRFVLSQQALSCFPHTRLGKLAVVVASYRRPGALAAVPSPLELCDDANPVDNEYFFDRSSQAFRYVLHYYRTGRLHVMEQLCALSFLQEIQYWGIDELSIDSCCRDRYFRRKELSETLDFKKDTEDQESQHESEQDFSQGPCPTVRQKLWNILEKPGSSTAARIFGVISIIFVVVSIINMALMSAELSWLDLQLLEILEYVCISWFTGEFVLRFLCVRDRCRFLRKVPNIIDLLAILPFYITLLVESLSGSQTTQELENVGRIVQVLRLLRALRMLKLGRHSTGLRSLGMTITQCYEEVGLLLLFLSVGISIFSTVEYFAEQSIPDTTFTSVPCAWWGATTSMTTVGYGDIRPDTTTGKIVAFMCILSGILVLALPIAIINDRFSACYFTLKLKEAAVRQREALKKLTKNIATDSYISVNLRDVYARSIMEMLRLKGRERASTRSSGGDDFWF
current amplitude (patch clamp) in CHO cells co-transfected with KV8.1 W388G and wild-type KV7.2 (4:1), relative to both wild-type constructs [2]: 44.1%
